Laboratory results as given in US20100092522A1 (published 2010).

What follows are binders tested against T1, HLA-A0201 molecule on T2 cells (TAP-, HLA-A0201+) (human) (assay: T2 stabilization assay of Example 1, as told in the description).
T1 construct: MHC class I molecule without a defined peptide; also called HLA-A2.1
Protocol: (§1) T2 cells (TAP⁻, HLA-A0201⁺) were incubated overnight at 27° C. at a concentration of 1×10⁶ cells/ml in FCS-free RPMI medium supplemented with 5 μg/ml human β₂m (Sigma, St Louis, Mo.) in the absence (negative control) or presence of either a positive reference tyrosinase peptide or test peptides at various final concentrations (50, 10, 1, and 0.1 micrograms (μg)/ml). Following a 4-hour incubation with 5 μg/ml brefeldin A (Sigma), T2 cells were labeled for 30 minutes at 4° C. with a saturating concentration of anti-HLA-A2.1 (BB7.2) mAb, then washed twice. Cells were then incubated for 30 minutes, 4° C. with a saturating concentration of FITC-conjugated goat IgG F(ab′)2 anti-mouse Ig (Caltag, San Francisco, Calif.), washed twice, fixed in PBS/1% paraformaldehyde and analyzed using a FACS Calibur® cytofluorometer (Becton Dickinson, Immunocytometry Systems, San Jose, Calif.).
(§2) Following initial evaluation of peptide binding at time 0, cells were washed in RPMI complete medium to remove free peptides and incubated in the continuous presence of 0.5 μg/ml brefeldin-A for 2, 4, 6 or 8 hours.
YLLPAVPSL [WT1 C1 (analogue)]: binds.

What follows are binders tested against T2, HLA-A0301 molecule on Raji HLA-A0301 cells (human) (assay: thermostabilization assay on Raji HLA-A0301 cells, fluorescence index).
T2 construct: It says only 'thermostabilization assays using; Raji HLA-A0301 cells'
NMHQRNMTK [A3 WT1 A (native)]: binds. NMYQRVMTK [A3 WT1 A3 (analogue)]: binds. NMHQRVMTK [A3 WT1 A2 (analogue)]: binds. NMYQRNMTK [A3 WT1 A1 (analogue)]: binds. QMNLGATLK [A3 WT1 B (native)]: binds. QMYLGVTLK [A3 WT1 B3 (analogue)]: binds. QMYLGATLK [A3 WT1 B1 (analogue)]: binds. QMNLGVTLK [A3 WT1 B2 (analogue)]: binds. KLSHLQMHSR [A3 WT1 D (native)]: binds. KLSHLQMHSK [A3 WT1 D2 (analogue)]: binds. KLYHLQMHSR [A3 WT1 D1 (analogue)]: binds. KLYHLQMHSK [A3 WT1 D3 (analogue)]: binds. FMCAYPGCNK [A3 WT1 C (native)]: binds. FMYAYPFCNK [A3 WT1 C3 (analogue)]: binds. FMCAYPFCNK [A3 WT1 C2 (analogue)]: binds. FMYAYPGCNK [A3 WT1 C1 (analogue)]: binds.

The binders below were run against T1, HLA-A0201 molecule on T2 cells (TAP-, …) (assay: T2 thermostabilization assay, flow cytometry of surface HLA-A2 (BB7.2), fluorescence index).
Protocol: as §1, §2
YMFPNAPYL [WT1 A1 (analogue)]: binds. YLGATLKGV [WT1 D1 (analogue)]: binds. YLGEQQYSV [WT1 B1 (analogue)]: binds.

These binders were tested against T1, HLA-A0201 molecule on T2 cells (TAP-, …) (assay: T2 thermostabilization assay, flow cytometry of surface HLA-A2 (BB7.2), fluorescence index; native peptide as reference).
Protocol: as §1, §2
ALLPAVPSL [WT1 C (native)]: binds. RMFPNAPYL (also called WT1A (126-134)) [WT1 A (native)]: binds. NLGATLKGV [WT1 D (native)]: binds. SLGEQQYSV [WT1 B (native)]: binds.
